Here are results for three molecules from patent publication EP1752538A1 (BAYER CORPORATION, dated 1997).

Like-named read-outs stand apart in the source and are kept apart here. Where no end group is shown, it is not given here.

For orientation: Ki means a measure of affinity in units of concentration, obtained from inhibition or displacement. Read a low Ki as tighter binding.

For test [1], the target named is human tissue kallikrein (human, UniProt P06870 25-262). Description: enzyme inhibition kinetics, tissue kallikrein 0.35 nM, PFR-AMC substrate.
human tissue kallikrein, sequence (P06870 25-262 limits assumed): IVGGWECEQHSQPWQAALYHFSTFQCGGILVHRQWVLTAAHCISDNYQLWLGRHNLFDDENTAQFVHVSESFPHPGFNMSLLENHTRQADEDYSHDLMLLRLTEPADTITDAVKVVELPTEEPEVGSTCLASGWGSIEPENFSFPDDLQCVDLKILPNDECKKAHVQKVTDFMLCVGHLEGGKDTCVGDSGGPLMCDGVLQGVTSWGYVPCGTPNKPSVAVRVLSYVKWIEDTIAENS
For test [2], the target named is T1, human plasma kallikrein (human, UniProt P03952 20-638).
T1 construct: Active enzyme
T1 sequence (P03952 20-638 limits assumed): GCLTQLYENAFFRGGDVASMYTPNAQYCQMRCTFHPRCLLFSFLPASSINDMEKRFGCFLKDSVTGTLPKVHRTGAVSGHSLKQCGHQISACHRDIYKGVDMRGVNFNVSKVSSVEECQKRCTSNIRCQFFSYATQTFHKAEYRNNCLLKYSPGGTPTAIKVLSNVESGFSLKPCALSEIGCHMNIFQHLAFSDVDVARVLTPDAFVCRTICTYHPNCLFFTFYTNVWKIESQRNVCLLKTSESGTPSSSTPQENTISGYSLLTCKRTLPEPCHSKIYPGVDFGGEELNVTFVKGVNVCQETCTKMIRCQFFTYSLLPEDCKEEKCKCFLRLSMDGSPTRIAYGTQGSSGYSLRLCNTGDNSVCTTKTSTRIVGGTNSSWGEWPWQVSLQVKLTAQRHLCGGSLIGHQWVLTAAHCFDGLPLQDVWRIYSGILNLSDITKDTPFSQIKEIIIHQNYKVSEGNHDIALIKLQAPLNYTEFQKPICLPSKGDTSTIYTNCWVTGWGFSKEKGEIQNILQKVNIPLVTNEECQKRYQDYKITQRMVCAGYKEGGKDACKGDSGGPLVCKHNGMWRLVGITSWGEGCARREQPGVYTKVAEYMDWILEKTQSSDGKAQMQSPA
The experiment in a line: enzyme inhibition kinetics, kallikrein 2.5 nM.

Test [3] addresses T2, Tissue Factor VIIa.
T2 construct: Complex of tissue factor and factor VIIa; no method is described for it; also called tissue factor VIIa complex
The experiment in a line: enzyme inhibition.

Test [4] deals with T3, human plasmin (human, UniProt P00747 97-810).
T3 construct: Active enzyme
T3 sequence (P00747 97-810 limits assumed): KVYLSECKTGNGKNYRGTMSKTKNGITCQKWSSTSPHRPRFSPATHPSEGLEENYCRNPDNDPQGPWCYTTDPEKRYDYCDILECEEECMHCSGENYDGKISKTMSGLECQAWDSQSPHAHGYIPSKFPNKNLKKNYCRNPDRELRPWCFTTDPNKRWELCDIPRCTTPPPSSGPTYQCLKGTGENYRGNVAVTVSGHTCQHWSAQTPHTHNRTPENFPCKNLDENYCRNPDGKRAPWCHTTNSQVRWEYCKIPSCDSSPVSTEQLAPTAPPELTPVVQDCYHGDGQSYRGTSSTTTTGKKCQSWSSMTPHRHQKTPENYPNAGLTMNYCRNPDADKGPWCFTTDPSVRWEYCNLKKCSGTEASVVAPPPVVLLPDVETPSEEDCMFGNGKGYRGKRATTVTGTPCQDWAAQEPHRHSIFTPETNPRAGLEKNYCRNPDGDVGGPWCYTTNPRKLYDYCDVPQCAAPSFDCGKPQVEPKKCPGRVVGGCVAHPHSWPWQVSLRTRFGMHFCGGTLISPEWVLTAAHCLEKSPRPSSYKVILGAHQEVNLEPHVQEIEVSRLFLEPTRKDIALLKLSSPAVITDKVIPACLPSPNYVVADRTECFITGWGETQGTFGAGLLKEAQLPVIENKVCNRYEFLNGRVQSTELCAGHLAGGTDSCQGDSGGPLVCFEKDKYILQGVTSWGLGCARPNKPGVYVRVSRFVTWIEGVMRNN
The experiment in a line: enzyme inhibition kinetics, plasmin 50 pM.

The target in test [5] is T4, Factor XIa (Homo sapiens (Human), UniProt P03951 19-387; P03951 388-625, Activated enzyme cleaved after Arg387 of the precursor. The native molecule is a disulfide-linked homodimer of heavy-plu [CUT]).
T4 construct: also called FXIa
T4 sequence (P03951 19-387 limits assumed, form in doubt, chain 1 of 2): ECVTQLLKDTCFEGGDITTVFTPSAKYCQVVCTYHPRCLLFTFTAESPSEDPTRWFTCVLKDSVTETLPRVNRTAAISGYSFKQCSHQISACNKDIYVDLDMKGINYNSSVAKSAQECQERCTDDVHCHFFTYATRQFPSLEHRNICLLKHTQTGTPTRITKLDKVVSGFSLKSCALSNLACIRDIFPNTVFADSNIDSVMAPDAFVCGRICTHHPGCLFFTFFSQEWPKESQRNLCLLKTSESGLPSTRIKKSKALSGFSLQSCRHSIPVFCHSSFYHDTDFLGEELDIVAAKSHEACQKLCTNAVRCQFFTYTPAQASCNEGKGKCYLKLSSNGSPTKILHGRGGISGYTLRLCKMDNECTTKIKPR
T4 sequence (P03951 388-625 limits assumed, form in doubt, chain 2 of 2): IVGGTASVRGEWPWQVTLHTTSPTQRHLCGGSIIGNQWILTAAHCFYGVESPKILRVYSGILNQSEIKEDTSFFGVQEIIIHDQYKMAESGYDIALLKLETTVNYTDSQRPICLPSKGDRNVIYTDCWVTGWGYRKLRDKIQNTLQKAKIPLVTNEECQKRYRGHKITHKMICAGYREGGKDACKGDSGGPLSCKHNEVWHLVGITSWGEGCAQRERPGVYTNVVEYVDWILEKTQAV
Description: enzyme inhibition kinetics, factor XIa 0.1 nM.

Test [6] concerns the target T5, bovine trypsin (type III) (bovine, UniProt P00760 24-246).
T5 construct: Active enzyme, active-site titrated
Description: enzyme inhibition kinetics, trypsin 48.5 pM.

Test [7] has as its target T6, bovine pancreatic kallikrein (bovine).
T6 construct: also called immobilized bovine pancreatic kallikrein; kallikrein-sepharose
The experiment in a line: enzyme inhibition kinetics, kallikrein 100 pM.

Test [8] has as its target human factor Xa (human, UniProt P00742 41-488, limits assumed). Description: enzyme inhibition kinetics, factor Xa 0.87 nM.
The target of test [9] is T7, tissue plasminogen activator (single chain form from human melanoma cell culture) (human, UniProt P00750 36-562, limits assumed).
T7 construct: also called tPA
T7 sequence (P00750 36-562 limits assumed): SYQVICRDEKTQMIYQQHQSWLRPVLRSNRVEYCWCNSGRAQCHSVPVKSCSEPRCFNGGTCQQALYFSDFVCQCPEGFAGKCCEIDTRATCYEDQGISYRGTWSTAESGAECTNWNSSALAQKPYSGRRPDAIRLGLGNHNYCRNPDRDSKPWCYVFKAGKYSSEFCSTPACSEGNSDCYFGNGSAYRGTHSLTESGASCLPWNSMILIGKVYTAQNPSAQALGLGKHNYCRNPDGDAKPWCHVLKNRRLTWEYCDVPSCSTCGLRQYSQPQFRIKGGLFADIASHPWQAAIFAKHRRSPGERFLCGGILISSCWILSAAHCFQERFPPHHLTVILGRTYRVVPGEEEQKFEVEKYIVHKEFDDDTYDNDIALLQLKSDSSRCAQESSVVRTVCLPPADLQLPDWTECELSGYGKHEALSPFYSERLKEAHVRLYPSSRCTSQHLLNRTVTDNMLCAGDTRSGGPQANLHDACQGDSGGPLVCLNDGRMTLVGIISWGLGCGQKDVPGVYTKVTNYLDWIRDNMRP
Description: enzyme inhibition, tPA 7.5 nM, chromogenic pNA substrate.

Test [10] concerns the target Bovine chymotrypsin (bovine, UniProt P00766 1-245). The experiment in a line: enzyme inhibition kinetics, chymotrypsin 5 nM.
In test [11] the target is T6, bovine pancreatic kallikrein. Description: enzyme inhibition kinetics, kallikrein 92.0 pM.
Test [12] concerns the target T5, bovine trypsin (type III). The experiment in a line: enzyme inhibition kinetics, trypsin 48.5 pM. This is another data set of the same source.
Test [13] addresses T3, human plasmin. Description: enzyme inhibition kinetics, plasmin 50 pM. This is another data set of the same source.

T5 sequence (P00760 24-246): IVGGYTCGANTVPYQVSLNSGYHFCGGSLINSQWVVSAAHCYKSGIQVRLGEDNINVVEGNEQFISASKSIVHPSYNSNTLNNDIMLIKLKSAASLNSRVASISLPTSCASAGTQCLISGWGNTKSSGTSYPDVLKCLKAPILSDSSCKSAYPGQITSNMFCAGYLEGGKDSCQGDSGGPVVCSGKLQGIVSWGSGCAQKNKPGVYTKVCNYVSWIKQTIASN

B1: recombinant placental bikunin (1-170) from baculovirus / Sf9 cells (other)
chain: ADRERSIHDFCLVSKVVGRCRASMPRWWYNVTDGSCQLFVYGGCDGNSNNYLTKEECLKKCATVTENATGDLATSRNAADSSVPSAPRRQDSEDHSSDMFNYEEYCTANAVTGPCRASFPRWYFDVERNSCNNFIYGGCRGNKNSYRSEEACMLRCFRQQENPPLPLGSK
modifications: asparagine 30 silent in sequencing, consistent with glycosylation
notes: signal peptide correctly removed (N-terminus ADRER); also called Recombinant Bikunin; Sf9-derived human placental bikunin (1-170)
On to B1, for which the Ki in test [1] was 0.04 nM; in test [2] it was 0.18 nM; in test [3], 800 nM; in [4], 0.23 nM; in test [5], 3 nM; in test [6], 0.064 nM. The values for the Ki in [7], in test [8] and in test [9] were 0.12 nM, 180 nM and less than 60 nM, respectively.

B2: synthetic placental bikunin (7-64), first preparation (other)
chain: IHDFCLVSKVVGRCRASMPRWWYNVTDGSCQLFVYGGCDGNSNNYLTKEECLKKCATV
modifications: ends and bridges not checked; also: may be incompletely deprotected before refolding
notes: also called placental bikunin fragment (7-64); KID1
For the molecule B2, the values for the Ki in test [10] and in [11] were 0.6 nM and 0.4 nM, respectively.

B3: native human placental bikunin isolated from human placenta (other)
chain: ADRERSIHDFCLVSKVVGRCRASMPRWWYNVTDGSCQLFVYGGCDGNSNNYLTKEECLKKCATVTENATGDLATSRNAADSSVPSAPRRQDSEDHSSDMFNYEEYCTANAVTGPCRASFPRWYFDVERNSCNNFIYGGCRGNKNSYRSEEACMLRCFRQQENPPLPLGSKVVVLAGAVS
modifications: asparagine 30 silent in sequencing, likely glycosylated
notes: Soluble protein purified from placenta; A minor species starts at residue 6; also called native Placental Bikunin (1-179)
For B3, the Ki amounted to 0.13 nM in test [12] and 1.9 nM in test [13].
